Experimental data published in article doi:10.1101/2023.04.12.536585, “Allosteric activation or inhibition of PI3Kγ mediated through conformational changes in the p110γ helical domain” (bioRxiv, 2023).

Columns and labels:
Test in all cases: BLI; His-tagged NB7 (500 nM) immobilised on Anti-Penta-His biosensor, dipped into PI3K in solution; dose response 50-1.9 nM for p110γ, p110γ-p84, p110γ-p101; 50 nM for the class IA comparison; 25 nM for phosphorylated and non-phosphorylated p110γ; Octet buffer 20 mM Tris pH 8.5, 100 mM NaCl, 50 mM ammonium sulfate, 0.1% BSA, 0.02% Tween 20; global fit to a 1:1 model
Conditions in all cases: both partners purified
[1] = biological target: T1, p110γ-p84 complex (human p110γ, mouse p84) (Homo sapiens p110γ; Mus musculus p84, UniProt P48736;Q3U6Q4)
T1 construct: p110γ catalytic subunit, human; plasmid pMultiBac-hsp110γ-mmp84 (MR24); p84 regulatory subunit of PI3Kγ, Mus musculus; The tag stood on p84 for purification and was cleaved by TEV on the column; also called p110/p84; not shown: 10xHis, N-terminal, cleaved; 2xStrep, N-terminal, cleaved
T1 sequence (P48736 whole entry, chain 1 of 2): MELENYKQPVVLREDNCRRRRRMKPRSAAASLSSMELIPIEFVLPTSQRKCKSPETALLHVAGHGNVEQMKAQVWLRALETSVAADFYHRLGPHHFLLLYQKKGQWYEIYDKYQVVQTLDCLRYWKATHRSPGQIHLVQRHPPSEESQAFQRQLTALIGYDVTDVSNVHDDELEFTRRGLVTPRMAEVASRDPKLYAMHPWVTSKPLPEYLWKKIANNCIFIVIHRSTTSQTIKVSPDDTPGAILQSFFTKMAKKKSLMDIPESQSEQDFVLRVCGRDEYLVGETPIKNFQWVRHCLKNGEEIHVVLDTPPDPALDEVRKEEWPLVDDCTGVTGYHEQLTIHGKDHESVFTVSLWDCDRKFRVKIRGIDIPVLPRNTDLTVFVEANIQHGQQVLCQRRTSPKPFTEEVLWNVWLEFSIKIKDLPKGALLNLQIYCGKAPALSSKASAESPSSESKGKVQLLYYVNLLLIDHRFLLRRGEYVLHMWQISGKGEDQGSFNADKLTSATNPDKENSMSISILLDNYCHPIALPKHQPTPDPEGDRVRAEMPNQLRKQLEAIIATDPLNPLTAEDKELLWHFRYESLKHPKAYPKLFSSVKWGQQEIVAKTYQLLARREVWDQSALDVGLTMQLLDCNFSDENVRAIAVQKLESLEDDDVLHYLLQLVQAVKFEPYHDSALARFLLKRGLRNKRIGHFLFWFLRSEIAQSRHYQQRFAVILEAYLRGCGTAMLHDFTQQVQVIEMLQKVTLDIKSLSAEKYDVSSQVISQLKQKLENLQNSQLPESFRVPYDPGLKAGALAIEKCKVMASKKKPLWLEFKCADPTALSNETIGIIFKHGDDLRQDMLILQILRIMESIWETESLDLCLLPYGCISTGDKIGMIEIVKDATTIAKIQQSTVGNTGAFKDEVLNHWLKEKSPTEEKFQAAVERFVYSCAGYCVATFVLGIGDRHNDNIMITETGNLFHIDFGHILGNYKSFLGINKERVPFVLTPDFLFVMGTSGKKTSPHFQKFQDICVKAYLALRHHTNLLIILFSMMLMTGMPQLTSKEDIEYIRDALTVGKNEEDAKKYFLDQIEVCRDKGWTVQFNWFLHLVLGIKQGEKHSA
T1 sequence (Q3U6Q4 whole entry, chain 2 of 2): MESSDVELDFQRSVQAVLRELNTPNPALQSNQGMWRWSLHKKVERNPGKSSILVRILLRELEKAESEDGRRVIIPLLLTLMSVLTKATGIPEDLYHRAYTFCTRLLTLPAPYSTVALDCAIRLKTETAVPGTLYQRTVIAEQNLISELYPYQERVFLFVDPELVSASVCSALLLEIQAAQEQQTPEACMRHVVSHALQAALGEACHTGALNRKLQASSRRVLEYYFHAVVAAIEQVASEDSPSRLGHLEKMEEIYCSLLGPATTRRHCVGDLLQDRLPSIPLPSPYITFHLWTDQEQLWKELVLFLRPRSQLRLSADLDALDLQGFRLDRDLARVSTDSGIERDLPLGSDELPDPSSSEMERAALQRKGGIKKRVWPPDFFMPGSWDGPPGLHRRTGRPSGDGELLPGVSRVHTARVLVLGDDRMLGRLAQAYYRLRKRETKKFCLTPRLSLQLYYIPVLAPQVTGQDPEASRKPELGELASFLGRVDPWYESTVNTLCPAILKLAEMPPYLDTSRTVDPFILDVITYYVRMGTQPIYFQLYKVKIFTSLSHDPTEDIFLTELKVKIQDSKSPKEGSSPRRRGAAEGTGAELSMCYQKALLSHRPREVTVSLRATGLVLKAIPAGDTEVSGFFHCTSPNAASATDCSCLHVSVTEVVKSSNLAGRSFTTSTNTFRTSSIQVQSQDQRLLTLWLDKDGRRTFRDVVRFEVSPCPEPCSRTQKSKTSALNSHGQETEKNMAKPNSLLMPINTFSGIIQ

[2] = biological target: T2, p110γ-p101 complex (human p110γ, porcine p101) (Homo sapiens p110γ; Sus scrofa p101, UniProt P48736;O02696)
T2 construct: p110γ catalytic subunit, human; plasmid pMultiBac-hsp110γ-ssp101 (MR22); full length p110γ in the p110γ-p101 model PDB 7MEZ; p101 regulatory subunit of PI3Kγ, Sus scrofa; The tag stood on p101 for purification and was cleaved by TEV on the column; also called p110/p101; not shown: 10xHis, N-terminal, cleaved; 2xStrep, N-terminal, cleaved
T2 sequence (P48736 whole entry, chain 1 of 2): as the sequence (P48736 whole entry, chain 1 of 2) above
T2 sequence (O02696 whole entry, chain 2 of 2): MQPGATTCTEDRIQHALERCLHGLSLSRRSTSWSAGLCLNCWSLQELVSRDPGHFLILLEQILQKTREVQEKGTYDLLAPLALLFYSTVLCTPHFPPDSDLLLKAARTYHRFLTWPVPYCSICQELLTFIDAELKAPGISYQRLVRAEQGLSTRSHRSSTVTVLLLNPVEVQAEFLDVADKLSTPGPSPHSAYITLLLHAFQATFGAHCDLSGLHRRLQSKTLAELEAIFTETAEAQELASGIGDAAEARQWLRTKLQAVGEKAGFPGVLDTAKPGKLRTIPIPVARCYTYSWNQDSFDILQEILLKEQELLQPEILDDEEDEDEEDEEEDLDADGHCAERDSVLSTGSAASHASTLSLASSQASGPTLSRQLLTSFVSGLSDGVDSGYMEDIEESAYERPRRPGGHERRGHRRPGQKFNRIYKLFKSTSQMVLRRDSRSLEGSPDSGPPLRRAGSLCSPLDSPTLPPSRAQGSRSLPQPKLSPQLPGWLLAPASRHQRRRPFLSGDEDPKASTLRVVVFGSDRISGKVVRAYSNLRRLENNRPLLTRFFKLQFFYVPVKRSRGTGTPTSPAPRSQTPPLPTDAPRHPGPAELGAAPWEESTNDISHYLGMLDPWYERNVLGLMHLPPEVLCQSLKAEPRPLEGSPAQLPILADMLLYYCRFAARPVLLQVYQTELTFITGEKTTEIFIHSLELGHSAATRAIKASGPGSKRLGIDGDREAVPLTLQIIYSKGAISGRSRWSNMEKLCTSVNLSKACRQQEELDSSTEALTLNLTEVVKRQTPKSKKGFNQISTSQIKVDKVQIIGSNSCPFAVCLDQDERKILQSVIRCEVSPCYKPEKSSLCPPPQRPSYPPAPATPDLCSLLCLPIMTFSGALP

p110α-p85α complex = biological target: T3, p110α-p85α complex (Homo sapiens (assumed), UniProt P42336;P27986)
T3 construct: p110α class IA PI3K catalytic subunit; plasmid pFASTBac p110α (pOV1181); p85α class IA regulatory subunit; Plasmids as described in Dornan et al., 2017 and Siempelkamp et al., 2017; also called PI3Kα; source: PI3Kα gel filtration buffer

p110β-p85β complex = biological target: T4, p110β-p85β complex (Homo sapiens (assumed), UniProt P42338;O00459)
T4 construct: p110β class IA PI3K catalytic subunit; plasmid pFASTBac p110β (pOV1182); p85β class IA regulatory subunit; also called PI3Kβ; source: PI3Kα gel filtration buffer

p110δ-p85β complex = biological target: T5, p110δ-p85β complex (Homo sapiens (assumed), UniProt O00329;O00459)
T5 construct: p110δ class IA PI3K catalytic subunit; plasmid pFASTBac p110δ (pOV1183); p85β class IA regulatory subunit; also called PI3Kδ; source: PI3Kα gel filtration buffer
T5 sequence (O00329 whole entry, stated change not applied, chain 1 of 2): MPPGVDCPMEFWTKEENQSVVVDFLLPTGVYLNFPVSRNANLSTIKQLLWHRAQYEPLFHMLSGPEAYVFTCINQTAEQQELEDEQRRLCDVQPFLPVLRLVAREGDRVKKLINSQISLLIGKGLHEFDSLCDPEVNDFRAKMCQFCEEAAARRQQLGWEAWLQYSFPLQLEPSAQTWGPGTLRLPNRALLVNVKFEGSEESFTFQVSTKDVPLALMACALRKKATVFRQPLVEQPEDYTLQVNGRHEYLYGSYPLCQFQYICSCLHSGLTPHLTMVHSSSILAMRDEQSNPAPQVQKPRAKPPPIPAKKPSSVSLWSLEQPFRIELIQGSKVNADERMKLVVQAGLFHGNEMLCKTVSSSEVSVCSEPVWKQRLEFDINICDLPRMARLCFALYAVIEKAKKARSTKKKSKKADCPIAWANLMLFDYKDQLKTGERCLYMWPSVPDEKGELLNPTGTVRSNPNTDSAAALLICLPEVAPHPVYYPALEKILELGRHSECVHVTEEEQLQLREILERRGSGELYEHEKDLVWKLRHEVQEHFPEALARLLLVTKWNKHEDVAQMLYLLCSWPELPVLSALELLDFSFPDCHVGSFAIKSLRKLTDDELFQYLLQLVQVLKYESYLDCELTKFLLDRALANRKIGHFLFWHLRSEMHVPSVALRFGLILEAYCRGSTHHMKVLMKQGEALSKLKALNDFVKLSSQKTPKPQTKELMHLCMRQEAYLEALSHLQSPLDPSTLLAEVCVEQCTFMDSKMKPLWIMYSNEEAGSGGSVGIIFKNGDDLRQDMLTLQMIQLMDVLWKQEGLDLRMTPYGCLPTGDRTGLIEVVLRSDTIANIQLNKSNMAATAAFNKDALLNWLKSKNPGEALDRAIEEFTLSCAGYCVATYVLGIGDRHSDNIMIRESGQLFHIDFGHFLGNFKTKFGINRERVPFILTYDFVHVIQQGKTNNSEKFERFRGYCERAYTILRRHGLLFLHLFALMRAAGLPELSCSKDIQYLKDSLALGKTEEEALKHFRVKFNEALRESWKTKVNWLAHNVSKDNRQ
T5 sequence (O00459 whole entry, stated change not applied, chain 2 of 2): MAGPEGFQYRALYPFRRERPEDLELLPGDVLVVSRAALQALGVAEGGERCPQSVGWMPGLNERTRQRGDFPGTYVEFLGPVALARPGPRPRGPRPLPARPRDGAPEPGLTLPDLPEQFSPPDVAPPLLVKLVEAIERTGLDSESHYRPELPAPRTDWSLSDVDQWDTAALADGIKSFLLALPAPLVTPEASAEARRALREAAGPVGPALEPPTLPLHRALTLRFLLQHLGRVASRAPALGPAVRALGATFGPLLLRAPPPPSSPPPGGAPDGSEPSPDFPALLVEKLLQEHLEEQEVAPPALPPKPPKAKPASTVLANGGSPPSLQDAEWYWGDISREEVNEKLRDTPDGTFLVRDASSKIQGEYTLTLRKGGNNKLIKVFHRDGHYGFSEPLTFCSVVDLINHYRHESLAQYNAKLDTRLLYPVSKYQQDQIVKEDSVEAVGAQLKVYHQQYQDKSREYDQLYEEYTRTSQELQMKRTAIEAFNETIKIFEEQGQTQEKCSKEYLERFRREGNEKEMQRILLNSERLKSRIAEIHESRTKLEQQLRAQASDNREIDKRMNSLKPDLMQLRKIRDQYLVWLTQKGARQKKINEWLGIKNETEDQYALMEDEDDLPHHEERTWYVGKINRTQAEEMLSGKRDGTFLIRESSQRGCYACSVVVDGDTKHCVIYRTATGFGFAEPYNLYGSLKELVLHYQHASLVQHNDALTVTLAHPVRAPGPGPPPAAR

B1: Nanobody NB7-PIK3CG (VHH)
VHH: QVQLVESGGGLVQPGGSLRLSCAASGSIFSINAMGWYRQAPGKQRELVAHITSGGSTNYADSVKGRFTISRDNAKNTVYLQMNSLKPEDTAVYYCNEAGDPFLGSTWNGPPAFGSWGQGTQVTVSS
notes: Identified earlier (Rathinaswamy et al., 2021b); also called His-NB7; nanobody 7; source: E. coli WK6 periplasm (pMESy4 vector), purified (Ni-NTA, SEC); not shown: His6, C-terminal, kept
Kd [1]: ~2 nM | Kd [2]: ~2 nM | binding result (p110α-p85α complex): no binding (tested: 50 nM) | binding result (p110β-p85β complex): no binding (tested: 50 nM) | binding result (p110δ-p85β complex): no binding (tested: 50 nM)
